Patent US20110092418A1 (FLOREKY INSTITUTE OF EXPERIMENTAL PHYSIOLOGY AND MEDICINE, published 2011)
No end group written: not given here.

T1: LGR7 (RXFP1) receptor (UniProt Q9HBX9 1-757, limits assumed)
T1 sequence (looked up): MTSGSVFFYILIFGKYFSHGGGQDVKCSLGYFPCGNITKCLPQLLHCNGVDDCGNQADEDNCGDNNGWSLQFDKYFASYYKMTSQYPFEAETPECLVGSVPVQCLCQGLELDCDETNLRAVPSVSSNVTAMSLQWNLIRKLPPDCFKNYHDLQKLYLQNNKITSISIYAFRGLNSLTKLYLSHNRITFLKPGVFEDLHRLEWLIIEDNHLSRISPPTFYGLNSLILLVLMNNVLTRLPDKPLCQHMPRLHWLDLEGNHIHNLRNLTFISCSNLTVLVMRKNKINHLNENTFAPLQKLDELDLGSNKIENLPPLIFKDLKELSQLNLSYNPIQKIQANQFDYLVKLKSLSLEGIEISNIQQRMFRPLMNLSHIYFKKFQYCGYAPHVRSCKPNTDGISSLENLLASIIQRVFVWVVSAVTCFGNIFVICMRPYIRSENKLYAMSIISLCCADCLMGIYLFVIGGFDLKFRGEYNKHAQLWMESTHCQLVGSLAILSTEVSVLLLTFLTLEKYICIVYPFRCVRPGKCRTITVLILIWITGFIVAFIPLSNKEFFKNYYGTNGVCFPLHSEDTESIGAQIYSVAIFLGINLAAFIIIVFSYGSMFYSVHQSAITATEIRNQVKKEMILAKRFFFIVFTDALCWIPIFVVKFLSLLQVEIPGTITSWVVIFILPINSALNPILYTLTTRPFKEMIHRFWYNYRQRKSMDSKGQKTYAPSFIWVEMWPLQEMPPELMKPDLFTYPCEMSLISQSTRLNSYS


Columns and labels:
LGR7 (RXFP1) receptor [1] = molecular target: T1, LGR7 (RXFP1) receptor; experiment: cell-based or functional assay
LGR8 (RXFP2) receptor = LGR8 (RXFP2) receptor (UniProt Q8WXD0 1-754, limits assumed); experiment: cell-based or functional assay
LGR7 (RXFP1) receptor [2] = molecular target: T1, LGR7 (RXFP1) receptor; experiment: whole cell competition binding against 100 pM [125I]-H2 relaxin, LGR7-transfected HEK293T cells
Protocol: Non-specific binding was determined by addition of excess unlabelled relaxin (500 nM). Data were analysed using GraphPad Prism.

LGR8 (RXFP2) receptor, sequence (Q8WXD0 whole entry): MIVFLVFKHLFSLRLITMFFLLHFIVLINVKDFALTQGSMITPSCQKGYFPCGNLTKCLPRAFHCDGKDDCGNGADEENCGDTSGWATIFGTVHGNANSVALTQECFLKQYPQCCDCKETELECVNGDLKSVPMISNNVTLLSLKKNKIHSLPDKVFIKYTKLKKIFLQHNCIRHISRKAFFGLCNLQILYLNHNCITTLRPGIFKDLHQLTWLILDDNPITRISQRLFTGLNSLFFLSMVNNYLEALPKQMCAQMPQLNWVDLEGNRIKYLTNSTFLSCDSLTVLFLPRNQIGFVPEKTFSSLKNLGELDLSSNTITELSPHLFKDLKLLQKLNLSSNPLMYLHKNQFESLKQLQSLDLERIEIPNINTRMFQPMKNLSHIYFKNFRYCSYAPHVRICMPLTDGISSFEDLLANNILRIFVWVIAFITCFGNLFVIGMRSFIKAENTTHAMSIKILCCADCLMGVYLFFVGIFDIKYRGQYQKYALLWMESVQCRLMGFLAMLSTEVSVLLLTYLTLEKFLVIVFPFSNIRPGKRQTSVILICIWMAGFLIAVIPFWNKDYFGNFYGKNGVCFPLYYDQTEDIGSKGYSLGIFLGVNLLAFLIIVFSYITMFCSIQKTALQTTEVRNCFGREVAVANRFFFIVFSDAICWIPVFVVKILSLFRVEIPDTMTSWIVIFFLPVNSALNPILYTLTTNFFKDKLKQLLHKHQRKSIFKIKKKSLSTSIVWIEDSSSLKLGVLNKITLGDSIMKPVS

Row | Binder | LGR7 cAMP pEC50 (LGR7 (RXFP1) receptor [1]) [pEC50] | LGR8 cAMP pEC50 (LGR8 (RXFP2) receptor) [pEC50] | pKi (LGR7 (RXFP1) receptor [2]) [pKi]
1 | chimeric relaxin polypeptide H2 B chain/INSL3 A chain (designed binder, Synthetic two-chain chimera; The synthesis protocol is detailed only for H2-B/H1-A; also called H2-B/INSL3-A) chain 1: DSWMEEVIKLCGRELVRAQIAICGMSTWS chain 2: AAATNPARYCCLSGCTQQDLLTLCPY | < 6 | > 6 | 6.21
2 | chimeric relaxin polypeptide H2 B chain/INSL5 A chain (designed binder, Synthetic two-chain chimera; The synthesis protocol is detailed only for H2-B/H1-A; also called H2-B/INSL5-A) chain 1: DSWMEEVIKLCGRELVRAQIAICGMSTWS chain 2: DLQTLCCTDGCSMTDLSALC | 6.37 | – | 5.31
3 | human relaxin 2 (H2), wild-type; A + B chain (ligand, disulfide (positions not given here); also: A and B chains joined by disulphide bonds, places not given here, Two-chain peptide hormone, A and B chains joined by disulphide bonds; also called H2 relaxin) chain 1: DSWMEEVIKLCGRELVRAQIAICGMSTWS chain 2: QLYSALANKCCHVGCTKRSLARFC | 10.3 | 9.13 | 9.03
4 | human relaxin 3 (H3), wild-type; A + B chain (ligand, disulfide (positions not given here); also: A and B chains joined by disulphide bonds, places not given here, domain: B chain; Two-chain peptide hormone, A and B chains joined by disulphide bonds; also called H3 relaxin) chain 1: RAAPYGVRLCGREFIRAVIFTCGGSRW chain 2: DVLAGLSSSCCKWGCSKSEISSLC | 9.36 | – | 7.88
5 | chimeric relaxin polypeptide H2 B chain/H3 relaxin A chain (designed binder, Synthetic two-chain chimera; The synthesis protocol is detailed only for H2-B/H1-A; also called H2-B/H3-A) chain 1: DSWMEEVIKLCGRELVRAQIAICGMSTWS chain 2: DVLAGLSSSCCKWGCSKSEISSLC | 8.1 | 5.34 | 6.8
